# Measurements taken from patent publication US20160200763A1 (RAMOT AT TEL AVIV UNIVERSITY, published 2016).
# Square brackets hold non-standard residues; d marks the D form. Ends that are not written are not given here. * marks the point of attachment. Myristoyl = CCCCCCCCCCCCCC(=O)*; pS = N[C@@H](COP(=O)(O)O)C(=O)O
# Target: Bacterially expressed Purified GSK-3β Wild-Type (WT) (human, UniProt P49841 1-420)
# Test: cell-based or functional assay
# Sequence of Bacterially expressed Purified GSK-3β Wild-Type (WT) (P49841 other isoform, or with tags, fused parts or gaps limits assumed): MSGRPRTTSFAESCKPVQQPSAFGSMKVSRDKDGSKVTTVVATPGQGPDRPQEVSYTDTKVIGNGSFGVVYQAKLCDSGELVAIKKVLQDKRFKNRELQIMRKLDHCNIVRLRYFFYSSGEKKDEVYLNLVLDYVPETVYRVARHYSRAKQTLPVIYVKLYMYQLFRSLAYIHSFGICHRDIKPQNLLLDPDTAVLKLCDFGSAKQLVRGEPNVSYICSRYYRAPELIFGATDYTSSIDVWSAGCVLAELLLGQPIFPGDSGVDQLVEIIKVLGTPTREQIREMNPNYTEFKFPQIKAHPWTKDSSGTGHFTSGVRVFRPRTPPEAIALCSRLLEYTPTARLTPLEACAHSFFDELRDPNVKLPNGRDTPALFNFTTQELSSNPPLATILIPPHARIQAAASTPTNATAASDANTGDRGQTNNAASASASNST
row,Binder,"IC50, inhibition of GSK-3β phosphorylation of pIRS-1 (in vitro kinase assay) [µM]"
1,KEAPPSPPQ[pS]P [L807],16
2,Myristoyl-GKEAPPAPPQ[pS]P [L803-mts],40
3,KEAPPAPPQ[pS]P [L803],200
